Key:
Assay in all cases: immunofluorescence on infected Vero E6 cells
[1] = target: T1, spike protein of SARS-CoV-2 B.1.1.7 (Alpha) clinical isolate (19/Italy/LOM-UniSR7/2021); GISAID … (SARS-CoV-2, UniProt P0DTC2 14-1273)
T1 construct: whole, on cells

[2] = target: T2, spike protein of SARS-CoV-2 Delta clinical isolate (hCoV-19/Italy/LOM-UniSR12/2021; GISAID EPI_ISL_4198505) (SARS-CoV-2, UniProt P0DTC2 14-1273)
T2 construct: whole, on cells

[3] = target: T3, spike protein of SARS-CoV-2 P.1 (Gamma) clinical isolate (hCoV-19/Italy/LOM-UniSR8/2021); GISAID … (SARS-CoV-2, UniProt P0DTC2 14-1273)
T3 construct: whole, on cells

Measured: binding result

B1: Fab BS.70 (Fab, V domains shown)
VH: LESGGGVVQPGTSLRLSCAASGFTFNNFGMHWVRQAPGKGLEWVAMISYEGSKDFYADSVKGRFTISKDHARNTVYLQMNSLRAEDTAEYYCAKDKAIFMISAGRTLDFWGQGTLVTVSS
VL: ELVMTQSPSSLSASVGDRVTITCRASQNIGIYLNWYQQKPGKAPKLLIYAASSLQNGVPSRFSGSGSGTDFTLTISTLQPEDFATYWCQQGYSTPLTFGGGTKVEIR
binds: all assays above

From patent US20260234220A1 (OSPEDALE SAN RAFFAELE S R L, published 2026)
